For this assay, the target named is 80S ribosome (purified 80S ribosomal fraction from H1299 cells) (human (endogenous in H1299)).

Results on one substance are retold here after paper PMC9121386.

Some results are limits rather than exact numbers.

fragile histidine triad (Fhit), wild type, sequence (P49789 whole entry): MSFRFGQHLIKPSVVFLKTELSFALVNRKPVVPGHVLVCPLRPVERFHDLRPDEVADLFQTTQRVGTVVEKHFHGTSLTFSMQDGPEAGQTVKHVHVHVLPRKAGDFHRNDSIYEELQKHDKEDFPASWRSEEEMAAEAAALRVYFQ

As for “fragile histidine triad (Fhit), wild type (from UniProt P49789 1-147) (enzyme)”, the turnover of Ap3A by Fhit (RP-HPLC) with 80S ribosomes pre-incubated with RNaseA was below 5%.
